Experimental data from doi:10.1101/2020.02.02.931204, “Fast Transport of RNA Granules by Direct Interactions with KIF5A/KLC1 Motors Prevents Axon Degeneration” (bioRxiv, 2020).

Biological target: T1, KLC1 (TPR1-6) fragment, human KNS2 residues 205-501 (human, UniProt Q07866 205-501)
T1 construct: KLC1 (KNS2), human, residues 205-501 (TPR1-6), in the pET28MHL vector; No removal of the tag is described; also called purified human KLC1; source: E. coli BL21 (DE3), purified (Ni-NTA, Superdex-200 gel filtration)
T1 sequence (Q07866 205-501): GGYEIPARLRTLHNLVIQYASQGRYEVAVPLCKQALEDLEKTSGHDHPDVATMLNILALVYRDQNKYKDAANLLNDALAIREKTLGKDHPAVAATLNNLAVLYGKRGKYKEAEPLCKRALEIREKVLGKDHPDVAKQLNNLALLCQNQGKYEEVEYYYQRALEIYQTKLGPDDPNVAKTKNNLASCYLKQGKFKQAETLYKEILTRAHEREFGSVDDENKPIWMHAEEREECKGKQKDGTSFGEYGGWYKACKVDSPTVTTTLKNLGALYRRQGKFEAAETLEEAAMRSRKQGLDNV
Test: ITC; KLC1 (TPR1-6) at 20μM in the cell, SFPQ peptide at 200μM in the syringe, 30 injections of 4μL; 20mM HEPES pH 7.5, 150mM NaCl, 0.5mM TCEP, 2% DMSO, 25°C; single site model
Conditions: both partners purified

Kd: 3.8 ± 2.3 µM | stoichiometry N: 1
B1: SFPQ WT peptide spanning the Y-acidic motif (peptide)
peptide: ESEMEDAYHEHQANLLR
notes: SFPQ, human, stretch of the coiled coil domain with the Y-acidic motif; the underlined Y is Y527; also called long SFPQ peptide; WT SFPQ; source: synthetic peptide (KE BioChem)
